For experiment [1], the target named is T1, human CD137 extracellular domain (human, UniProt Q07011 24-186, biotinylated where captured on the streptavidin chip).
T1 construct: extracellular domain; Section 17 says only 'Recombinant human CD137 (R&D systems)'; also called CD137 (human); Recombinant human CD137 (R&D systems)
Put plainly: SPR direct binding, captured BCY13582, soluble CD137 ECD, n = 3.

For the next experiment, the target named is T2, soluble OX40 (UniProt P43489 29-216, limits assumed).
T2 construct: also called soluble TNF family receptor OX40
T2 sequence (looked up): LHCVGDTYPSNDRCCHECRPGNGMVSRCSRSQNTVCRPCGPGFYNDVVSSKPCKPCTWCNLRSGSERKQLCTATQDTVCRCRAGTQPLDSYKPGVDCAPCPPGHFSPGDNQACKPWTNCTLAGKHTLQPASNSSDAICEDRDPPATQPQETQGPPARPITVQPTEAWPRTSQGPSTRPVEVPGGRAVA
Put plainly: SPR, streptavidin captured BCY13582, soluble receptor.

The target in the next experiment is T3, soluble CD40 (UniProt P25942 21-193, limits assumed).
T3 construct: also called soluble TNF family receptor CD40
T3 sequence (P25942 21-193 limits assumed): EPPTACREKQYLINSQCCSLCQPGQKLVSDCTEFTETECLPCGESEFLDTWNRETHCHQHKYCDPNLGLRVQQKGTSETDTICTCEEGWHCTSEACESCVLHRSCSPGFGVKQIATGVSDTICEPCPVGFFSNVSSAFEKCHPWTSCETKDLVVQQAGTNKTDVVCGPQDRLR
Described as above.

The target in experiment [2] is T4, cyno (NHP) CD137 extracellular domain (cyno (NHP), UniProt A9YYE7 24-186).
T4 construct: extracellular domain
T4 sequence (A9YYE7 entry or part of it): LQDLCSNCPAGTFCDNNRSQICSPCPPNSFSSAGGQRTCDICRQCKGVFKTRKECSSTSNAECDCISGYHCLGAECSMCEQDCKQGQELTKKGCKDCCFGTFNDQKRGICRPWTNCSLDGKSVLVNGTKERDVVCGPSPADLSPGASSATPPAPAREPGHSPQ
Nature of the experiment: SPR direct binding, captured BCY13582, soluble CD137 ECD, n = 1.

For experiment [3], the target named is T5, CD137 on Jurkat reporter cells (Promega kit CS196005) (UniProt Q07011 24-255, limits assumed). Put plainly: cell-based or functional assay.
T5 sequence (Q07011 24-255 limits assumed): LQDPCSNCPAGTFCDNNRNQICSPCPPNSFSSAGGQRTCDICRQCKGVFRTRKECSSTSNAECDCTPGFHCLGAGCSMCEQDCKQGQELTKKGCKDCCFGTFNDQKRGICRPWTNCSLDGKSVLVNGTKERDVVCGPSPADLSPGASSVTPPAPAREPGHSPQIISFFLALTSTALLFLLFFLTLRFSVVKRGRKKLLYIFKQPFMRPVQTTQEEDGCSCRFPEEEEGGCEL
The target of experiment [4] is T5, CD137 on Jurkat reporter cells (Promega …). Nature of the experiment: cell-based or functional assay. This is another data set of the same source.
The target of experiment [5] is T6, mouse CD137 extracellular domain (mouse, UniProt P20334 24-187).
T6 construct: extracellular domain
T6 sequence (looked up): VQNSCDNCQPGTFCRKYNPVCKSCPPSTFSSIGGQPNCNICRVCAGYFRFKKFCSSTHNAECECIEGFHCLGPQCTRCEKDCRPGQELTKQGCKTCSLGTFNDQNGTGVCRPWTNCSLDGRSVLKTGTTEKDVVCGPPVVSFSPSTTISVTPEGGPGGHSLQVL
Put plainly: SPR direct binding, captured BCY13582, n = 1.

In experiment [6] the target is T7, rat CD137 extracellular domain (rat, UniProt Q4W8J3 24-189).
T7 sequence: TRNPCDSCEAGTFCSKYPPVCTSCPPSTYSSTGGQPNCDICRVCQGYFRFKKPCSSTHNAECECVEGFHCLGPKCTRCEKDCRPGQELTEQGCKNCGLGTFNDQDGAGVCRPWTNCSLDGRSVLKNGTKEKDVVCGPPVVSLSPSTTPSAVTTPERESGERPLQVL
Nature of the experiment: SPR direct binding, captured BCY13582, n = 1.

Another experiment addresses T8, APLN (human, UniProt Q9ULZ1).
T8 construct: full-length protein over-expressed in HEK293 cells
T8 sequence (single chain, looked up): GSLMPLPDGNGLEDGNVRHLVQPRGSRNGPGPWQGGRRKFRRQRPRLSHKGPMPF
Put plainly: Retrogenix cell microarray, HEK293 cells over-expressing the protein, detection with AlexaFluor647 streptavidin.

In the next experiment the target is T9, METTL24 (human, UniProt Q5JXM2).
T9 construct: full-length protein over-expressed in HEK293 cells
T9 sequence (single chain, looked up): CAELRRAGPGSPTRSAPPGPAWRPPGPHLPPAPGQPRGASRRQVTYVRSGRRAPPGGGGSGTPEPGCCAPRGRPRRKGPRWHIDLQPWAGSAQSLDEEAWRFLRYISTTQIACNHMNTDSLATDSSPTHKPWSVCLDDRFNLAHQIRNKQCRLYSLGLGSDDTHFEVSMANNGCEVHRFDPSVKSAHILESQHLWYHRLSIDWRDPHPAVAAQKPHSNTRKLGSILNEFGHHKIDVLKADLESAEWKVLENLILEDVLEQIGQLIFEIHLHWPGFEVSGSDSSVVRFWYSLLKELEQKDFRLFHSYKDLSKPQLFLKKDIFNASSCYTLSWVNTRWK
The description is as above.

The target in another experiment is T10, GPR39 (human, UniProt O43194).
T10 construct: full-length protein over-expressed in HEK293 cells
T10 sequence (single chain, looked up): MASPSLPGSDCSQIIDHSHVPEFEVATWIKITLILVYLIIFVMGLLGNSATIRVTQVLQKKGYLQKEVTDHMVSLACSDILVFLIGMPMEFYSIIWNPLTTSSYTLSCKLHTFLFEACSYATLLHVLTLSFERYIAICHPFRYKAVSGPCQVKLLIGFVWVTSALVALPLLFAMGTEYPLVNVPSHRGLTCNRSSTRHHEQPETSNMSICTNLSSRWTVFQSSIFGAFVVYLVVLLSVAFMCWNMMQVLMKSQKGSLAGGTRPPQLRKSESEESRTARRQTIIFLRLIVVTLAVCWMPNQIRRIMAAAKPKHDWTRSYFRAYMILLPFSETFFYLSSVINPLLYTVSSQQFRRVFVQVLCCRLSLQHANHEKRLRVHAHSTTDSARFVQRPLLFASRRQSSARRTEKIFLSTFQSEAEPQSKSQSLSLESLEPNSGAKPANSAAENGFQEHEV
The description is as above.

The target in another experiment is T11, IGFBP1 (human, UniProt P08833).
T11 construct: full-length protein over-expressed in HEK293 cells
T11 sequence (single chain, looked up): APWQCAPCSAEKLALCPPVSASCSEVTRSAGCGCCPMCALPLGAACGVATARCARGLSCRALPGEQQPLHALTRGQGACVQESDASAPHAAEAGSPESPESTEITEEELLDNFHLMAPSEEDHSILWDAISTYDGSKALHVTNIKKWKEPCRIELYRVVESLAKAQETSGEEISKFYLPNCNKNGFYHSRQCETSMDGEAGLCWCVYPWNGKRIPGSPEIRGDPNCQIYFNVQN
The description is as above.

In another experiment the target is T12, EVA1C (human, UniProt P58658).
T12 construct: full-length protein over-expressed in HEK293 cells
T12 sequence (single chain, looked up): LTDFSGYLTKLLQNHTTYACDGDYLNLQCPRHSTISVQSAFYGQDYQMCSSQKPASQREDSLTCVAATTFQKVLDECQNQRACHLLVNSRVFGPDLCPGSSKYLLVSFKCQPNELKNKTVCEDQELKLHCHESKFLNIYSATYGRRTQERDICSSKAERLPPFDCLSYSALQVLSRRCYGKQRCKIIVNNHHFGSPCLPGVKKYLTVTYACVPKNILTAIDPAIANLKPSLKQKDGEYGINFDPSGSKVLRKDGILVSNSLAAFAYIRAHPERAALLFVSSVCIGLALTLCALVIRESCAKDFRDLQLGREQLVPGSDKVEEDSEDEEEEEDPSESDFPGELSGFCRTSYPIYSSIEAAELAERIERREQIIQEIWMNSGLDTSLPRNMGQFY
The description is as above.

The next experiment has as its target T13, HMGB2 (human, UniProt P26583).
T13 construct: full-length protein over-expressed in HEK293 cells
T13 sequence (single chain, looked up): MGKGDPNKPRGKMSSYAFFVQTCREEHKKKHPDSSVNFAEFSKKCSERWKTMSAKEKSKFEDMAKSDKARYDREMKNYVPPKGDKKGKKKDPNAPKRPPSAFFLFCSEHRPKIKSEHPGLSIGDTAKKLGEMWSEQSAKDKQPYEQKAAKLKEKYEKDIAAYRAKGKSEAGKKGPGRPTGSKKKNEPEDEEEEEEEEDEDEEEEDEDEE
Described as above.

Experiment [7] has as its target T14, human EphA2 protein (human, UniProt P29317 25-534, limits assumed, biotinylated).
T14 construct: Construct not described; also called EphA2 (human)
Nature of the experiment: SPR (Biacore), biotinylated human EphA2 captured on a streptavidin chip, BCY13272 as analyte, 1:1 fit. (SPR reads the build-up and loss of mass on a sensor chip optically.)

Experiment [8] deals with T1, human CD137 extracellular domain. Nature of the experiment: SPR (Biacore), biotinylated human CD137 captured on a streptavidin chip, BCY13272 as analyte, 1:1 fit; the text says the reported KD may be an overestimation (avidity).
The target of experiment [9] is T14, human EphA2 protein. Put plainly: SPR (Biacore T200), biotinylated EphA2 captured on streptavidin chip, 25° C.
The target in experiment [10] is T1, human CD137 extracellular domain. Nature of the experiment: SPR (Biacore), biotinylated human CD137 captured on a streptavidin chip, BCY13272 as analyte, 1:1 fit; the text calls the off rate very slow (avidity from two CD137 bicycles).
For experiment [11] the target is unchanged. Nature of the experiment: SPR (Biacore), biotinylated human CD137 captured on a streptavidin chip, BCY13272 as analyte, 1:1 fit; avidity from two CD137 bicycles.
For experiment [12], the target named is T5, CD137 on Jurkat reporter cells (Promega …). Put plainly: cell-based or functional assay. This is another data set of the same source.

“And” between values parts separate entries of the source, which are not always exact repeats. Identical values can stand only once. Starred links: 1 amine or outer side, 2 acyl side, 3 side chain; linkers in the order of their positions; H or OH if unused. Positions of bridges follow the written chain, without caps; N, C: chain ends. Non-standard residues stand in square brackets, D forms with d. Groups on a side chain read outwards from the residue. Primed or numbered codes have the meaning given here. Chains are numbered I, II in the order given. No end group written: not given here. *: point of attachment. dLys(PYA) = D-lysine Nε-acylated with 4-pentynoic acid, clicked (triazole) to the linker azide, O=C(CCc1cn([*:3])nn1)NCCCC[C@@H](N[*:1])C(=O)[*:2]; dLys(PYA)″ = D-lysine N6-(4-pentynoyl) (D-Lys(PYA)), C#CCCC(=O)NCCCC[C@@H](N[*:1])C(=O)[*:2]; TATA = O=C(CC[*:1])N1CN(C(=O)CC[*:2])CN(C(=O)CC[*:3])C1; Biotin = O=C1N[C@H]2[C@H](CS[C@H]2CCCCC(=O)*)N1; 1Nal = N[C@@H](Cc1cccc2ccccc12)C(=O)O; d1Nal = N[C@H](Cc1cccc2ccccc12)C(=O)O; Hyp = O=C(O)[C@@H]1C[C@@H](O)CN1; hArg = N=C(N)NCCCC[C@H](N)C(=O)O; tBuAla = CC(C)(C)C[C@H](N)C(=O)O; PEG12′ = not defined here; Nle = CCCC[C@H](N)C(=O)O Bounds are passed on as bounds.

The koff is the rate constant with which the complex falls apart. High values mean fast dissociation, low ones slow dissociation. As a reminder, the kon is the rate constant with which the complex forms.

T1 sequence (Q07011 24-186): as the sequence (A9YYE7 entry or part of it) above, with L4P, S19N, K50R, I66T, S67P, Y69F, E75G, A149V counted along it
T14 sequence (P29317 25-534 limits assumed): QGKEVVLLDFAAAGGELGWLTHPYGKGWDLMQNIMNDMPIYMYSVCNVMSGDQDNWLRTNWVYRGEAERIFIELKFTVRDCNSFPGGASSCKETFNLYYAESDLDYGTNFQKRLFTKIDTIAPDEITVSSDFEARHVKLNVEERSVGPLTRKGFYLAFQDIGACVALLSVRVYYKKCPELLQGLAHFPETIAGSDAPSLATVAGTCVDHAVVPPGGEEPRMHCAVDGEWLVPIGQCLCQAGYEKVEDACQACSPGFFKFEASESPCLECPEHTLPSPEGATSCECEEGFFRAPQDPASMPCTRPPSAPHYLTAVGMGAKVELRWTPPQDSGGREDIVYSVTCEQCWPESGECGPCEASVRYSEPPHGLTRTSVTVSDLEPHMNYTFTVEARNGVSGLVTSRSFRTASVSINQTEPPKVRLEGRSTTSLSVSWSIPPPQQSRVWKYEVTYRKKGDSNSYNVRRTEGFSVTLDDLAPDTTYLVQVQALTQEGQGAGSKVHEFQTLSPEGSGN

B1: BCY13582 (biotinylated BCY11863) (peptide)
peptide 1: CP[1Nal][dD]CM[hArg]DWSTP[Hyp]WC
peptide 2: Ac-C[tBuAla]PE[dLys(PYA)]PYCFADPY[Nle]CA
peptide 3: Ac-C[tBuAla]PE[dLys(PYA)]PYCFADPY[Nle]CK([PEG12′-Biotin])
modifications: linker I:1-I:5-I:15, II:1-II:8-II:15, III:1-III:8-III:15 via TATA; also: linker at chain B 5 at chain C 5 to a chain's N-terminus via N-(acid-PEG3)-N-bis(PEG3-azide)
notes: also called test peptide
On to B1, for which the figures for the Kd in [1] and in [2] were 8.4 nM and 4.23 nM, respectively. The binding result with soluble OX40 was “no binding (tested: 100 nM)”; with soluble CD40, “no binding (tested: 100 nM)”; in [5] it was “no binding”; in experiment [6] it was “no binding”; with APLN, “no binding (tested: 1 µM)”; with METTL24 it was “no binding (tested: 1 µM)”. Besides, the binding result in the experiment with GPR39, in the experiment with IGFBP1, with EVA1C and with HMGB2 was “no binding (tested: 1 µM)” each time. Besides, the “EC50 (nM), HT1376 co-culture” value in [3] was 0.58 nM. Also, the “Emax (fold induction over background), HT1376” value in experiment [3] stood at 57 fold over background. The “Arithmetic mean EC50 (nM), HT1376 co-culture” value in [4] was found to be 0.58 nM. Besides, in experiment [4], the “Arithmetic mean EC50 (nM), MDA-MB-468 co-culture” value amounted to 0.34 nM.

B2: heterotandem bicyclic peptide complex BCY13272 (peptide)
peptide 1: A[hArg]DC[Hyp]LVNPLCLEP[d1Nal]WTC
peptide 2: Ac-C[tBuAla]PE[dLys(PYA)″]PYCFADPY[Nle]CA
modifications: linker I:4-I:11-I:18, II:1-II:8-II:15 via TATA; not fully specified (bridges); also: 1:2 complex: BCY13118 + 2x BCY8928
notes: also called EphA2/CD137 heterotandem
For the molecule B2, in the experiment with human EphA2 protein [7], the koff came out at 0.00102 s⁻¹ and the kon amounted to 502000 M⁻¹ s⁻¹. Moreover, the Kd in experiment [8] was no more than 0.0331 nM. This molecule also registered a Kd with human EphA2 protein [9] of 2 nM. Also, in [10], the koff was no more than 1e-05 s⁻¹. The molecule further displayed a kon in experiment [11] of 302000 M⁻¹ s⁻¹. For the same molecule, in experiment [12], the “EC50 (nM), A549 co-culture” value is 0.147 nM and 0.107 nM and 0.132 nM; the “Geo mean EC50/cell line, A549” value stood at 0.127 nM; the “Geo mean EC50/cell line, HT-29” value was found to be 0.279 nM; the “Geo mean EC50/cell line, PC-3” value was found to be 0.117 nM.

The values are drawn from US20230129258A1 (Bicycle, published 2023).
